Assay results reported in patent publication US20240287172A1 (SCIRHOM, published 2024).
Where a chain is given by its changes, count along the chain named.

Assays:
hiR2-FL-P532A-T7 = molecular target: T1, hiR2-FL-P532A-T7 (human, UniProt Q6PJF5 1-856); assay: FACS on MEF-DKO cells expressing the variant, 3 µg/ml antibody
T1 sequence: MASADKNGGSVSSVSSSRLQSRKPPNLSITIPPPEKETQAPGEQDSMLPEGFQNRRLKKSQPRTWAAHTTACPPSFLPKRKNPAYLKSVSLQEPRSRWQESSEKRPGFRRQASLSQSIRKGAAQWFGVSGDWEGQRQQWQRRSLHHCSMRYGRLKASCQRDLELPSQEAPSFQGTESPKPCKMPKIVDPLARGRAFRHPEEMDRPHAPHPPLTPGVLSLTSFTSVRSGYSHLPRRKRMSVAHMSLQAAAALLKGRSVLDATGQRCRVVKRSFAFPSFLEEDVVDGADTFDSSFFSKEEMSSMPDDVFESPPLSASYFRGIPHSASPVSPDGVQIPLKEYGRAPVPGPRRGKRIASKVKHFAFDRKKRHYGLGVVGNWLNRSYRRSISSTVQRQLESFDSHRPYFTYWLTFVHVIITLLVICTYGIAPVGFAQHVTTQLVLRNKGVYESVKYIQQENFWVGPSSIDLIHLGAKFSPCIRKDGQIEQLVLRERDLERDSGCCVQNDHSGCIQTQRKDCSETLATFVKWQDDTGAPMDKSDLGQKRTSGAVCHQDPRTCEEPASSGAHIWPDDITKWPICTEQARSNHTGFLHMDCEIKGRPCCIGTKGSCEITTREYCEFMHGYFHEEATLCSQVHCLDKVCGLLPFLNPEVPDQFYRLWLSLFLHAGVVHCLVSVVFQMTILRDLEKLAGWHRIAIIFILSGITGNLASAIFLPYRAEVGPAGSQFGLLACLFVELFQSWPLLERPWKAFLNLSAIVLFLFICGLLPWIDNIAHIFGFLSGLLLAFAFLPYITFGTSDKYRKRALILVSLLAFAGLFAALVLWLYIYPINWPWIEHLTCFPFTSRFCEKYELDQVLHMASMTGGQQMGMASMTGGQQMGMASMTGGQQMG
Procedure, shortened: (§1)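 Primary stain: antibody 3 μg/ml, 1 h on ice; controls buffer alone. Secondary: PE anti-mouse IgG F(ab′)2 1:100, 1 h on ice, light-protected. Washes at 4° C; read by flow cytometry.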

hiR2-FL-N503A-T7 = molecular target: T2, hiR2-FL-N503A-T7 (human, UniProt Q6PJF5 1-856); assay: as above
T2 sequence: T1 sequence with N503A, A532P
Procedure, shortened: as §1

B1: antibody 5 (antibody, V domains shown)
VH: QVTLKESGPGILQPSQTLSLTCSFSGFSLSTFGMGVGWIRQPSGKGLEWLAHIWWDDEKYYNSALKSRLTISKATSKNQAFLKIANVDTADTATYYCARISNYGSNYWYFNVWGTGTTVTVSS
VL: QVVLTQSPALMSASPGEKVTMTCSAGSSVSCMYWYQQKPGSSPRVLIYDTSNLASGVPARFTGSGSGTSYSLTISRMEAEDAASYYCQQWNSYPLTFGAGTKLELK
notes: mouse IgG, kappa light chain; also called clone #5; purified antibody 5
For B1, the “loss of binding vs wild type” value (hiR2-FL-P532A-T7) was ≥ 30%.

B2: antibody 44 (antibody, V domains shown)
VH: B1 VH with G44E, E58D, S63P, A74D, A80I, A85T, D91E, A98S, S101G, N111D
VL: QIVLTQSPAVMSASPGEKVTMTCTASSSVYYMYWYQQTPGSSPRLLIYDTSNLASGVPVRFSGSGSGTSYSLTISRMEAEDAATYYCQQWNTYPLTFGAGTKLELK
notes: mouse IgG, kappa light chain; also called clone #44; purified antibody 44
In the case of B2, the “loss of binding vs wild type” value (hiR2-FL-P532A-T7) is reported as ≥ 30%.

B3: antibody 48 (antibody, V domains shown)
VH: QVQLQQSGTELVRPGTSVKVSCKASGYAFTNYLIEWVKQRPGQGLEWIGVINPGSGFTKYNEKFKGKATLTADKSSSTVYMHLSSLTSEDSAVYFCARGLYRAMDYWGQGTSVTVSS
VL: DIQMTQSPASQSASLGESVTITCLASQTIATWLAWYQQKPGKSPQLLIYGATTLADGVPSRFSGGGSGTKFSFKISSLQAEDFVSYYCQQLYSTPYTFGGGTKLEIK
notes: mouse IgG, kappa light chain; also called clone #48; purified antibody 48
B3 was tested, and the “loss of binding vs wild type” value (hiR2-FL-N503A-T7) was ≥ 30%.

B4: antibody 50 (antibody, V domains shown)
VH: B3 VH with T9A, T16A, T30S, V79A, H82Q
VL: B3 VL with A30G, G50A, T52A, T53S, S85N, L91I
notes: mouse IgG, kappa light chain; also called clone #50; purified antibody 50
B4 was tested, and the “loss of binding vs wild type” value (hiR2-FL-N503A-T7) was ≥ 30%.
